Measured values: publication PMC7255924 (The FEBS journal, 2019)

Target: T1, C3 domain of Streptococcus mutans adhesin P1 (recombinant C3 polypeptide, 175-residue construct) (Streptococcus mutans)
T1 chain: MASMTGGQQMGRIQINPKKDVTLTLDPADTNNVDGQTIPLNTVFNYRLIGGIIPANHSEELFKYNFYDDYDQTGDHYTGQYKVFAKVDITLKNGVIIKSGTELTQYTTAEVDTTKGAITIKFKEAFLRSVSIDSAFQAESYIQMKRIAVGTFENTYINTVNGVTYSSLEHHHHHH
Test: ITC

B1: A3VP1 (386–864) polypeptide of Streptococcus mutans adhesin P1 (domain or fragment)
chain: AANEADYQAKLTAYQTELARVQKANADAKAAYEAAVAANNAANAALTAENTAIKKRNADAKADYEAKLAKYQADLAKYQKDLADYPVKLKAYEDEQASIKAALAELEKHKNEDGNLTEPSAQNLVYDLEPNANLSLTTDGKFLKASAVDDAFSKSTSKAKYDQKILQLDDLDITNLEQSNDVASSMELYGNFGDKAGWSTTVSNNSQVKWGSVLLERGQSATATYTNLQNSYYNGKKISKIVYKYTVDPKSKFQGQKVWLGIFTDPTLGVFASAYTGQVEKNTSIFIKNEFTFYDEDGKPINFDNALLSVASLNRENNSIEMAKDYTGKFVKISGSSIGEKNGMIYATDTLNFRQGQGGARWTMYTRASEPGSGWDSSDAPNSWYGAGAIRMSGPNNSVTLGAISSTLVVPADPTMAIETGKKPNIWYSLNGKIRAVNVPKVTKEKPTPPVKPTAPTKPTYETEKPLKPAPVAPNYEKE
In the case of B1, the “KD of the site with intermediate binding constant (two-site fit)” value is reported as 35.2 ± 7 µM.
